Consider 1 molecule from patent US20090088376A1, “DENDRIMER BASED COMPOSITIONS AND METHODS OF USING THE SAME” (priority 2007, published 2009).

The test has as its system A431 cells. The test is described as follows: Binding of dendrimer-EGF conjugate by flow cytometry. The class given is cell-based. Here is the method:
Cell culture and treatment. The cell lines were cultured in Dulbecco's Modified Eagle Medium (DMEM) supplemented with 10% fetal calf serum (FCS), 100 units/ml penicillin, and 100 μg/ml streptomycin. Cells were allowed to grow in a monolayer in tissue culture flasks incubated at 37° C. in a humidified atmosphere containing 5% CO2 and 95% air. Cells plated in 24-well plates (for flow cytometry), 35 mm dishes with glass cover slips in the bottom (for confocal microscopy) and 96 well plates (for ‘FACE’ and ‘XTT’ assays) were treated with the conjugate under the specified incubation conditions. Excess free EGF was added 30 min prior to the conjugates for blocking the binding of the latter. Competition assay with free EGF was conducted at 4° C. by simultaneously exposing the conjugate and free EGF.
Flow Cytometry and Confocal Microscopy. The FITC fluorescence was quantified on a f a BECKMAN-COULTER EPICS-XL MCL flow cytometer, and the data were analyzed using EXPO32 software (BECKMAN-COULTER, Miami, Fla.). The viable cells were gated, and the mean FL1-fluorescence of 10,000 cells was quantified. […] Cells were incubated with the conjugate in serum-free medium under the specified conditions and analyzed using an OLYMPUS FLUOVIEW 500 laser scanning confocal microscope. FITC fluorescence was excited with a 488 nm blue argon laser and emission was measured through a 505-525 nm barrier filter. […]
(Flow cytometry measures light scatter and fluorescence of single cells or particles in a stream.)

B1: EGF-FI (conjugate, UniProt P01133 23-1207, looked up)
Pro-epidermal growth factor: PQHWSCPEGTLAGNGNSTCVGPAPFLIFSHGNSIFRIDTEGTNYEQLVVDAGVSVIMDFHYNEKRIYWVDLERQLLQRVFLNGSRQERVCNIEKNVSGMAINWINEEVIWSNQQEGIITVTDMKGNNSHILLSALKYPANVAVDPVERFIFWSSEVAGSLYRADLDGVGVKALLETSEKITAVSLDVLDKRLFWIQYNREGSNSLICSCDYDGGSVHISKHPTQHNLFAMSLFGDRIFYSTWKMKTIWIANKHTGKDMVRINLHSSFVPLGELKVVHPLAQPKAEDDTWEPEQKLCKLRKGNCSSTVCGQDLQSHLCMCAEGYALSRDRKYCEDVNECAFWNHGCTLGCKNTPGSYYCTCPVGFVLLPDGKRCHQLVSCPRNVSECSHDCVLTSEGPLCFCPEGSVLERDGKTCSGCSSPDNGGCSQLCVPLSPVSWECDCFPGYDLQLDEKSCAASGPQPFLLFANSQDIRHMHFDGTDYGTLLSQQMGMVYALDHDPVENKIYFAHTALKWIERANMDGSQRERLIEEGVDVPEGLAVDWIGRRFYWTDRGKSLIGRSDLNGKRSKIITKENISQPRGIAVHPMAKRLFWTDTGINPRIESSSLQGLGRLVIASSDLIWPSGITIDFLTDKLYWCDAKQSVIEMANLDGSKRRRLTQNDVGHPFAVAVFEDYVWFSDWAMPSVMRVNKRTGKDRVRLQGSMLKPSSLVVVHPLAKPGADPCLYQNGGCEHICKKRLGTAWCSCREGFMKASDGKTCLALDGHQLLAGGEVDLKNQVTPLDILSKTRVSEDNITESQHMLVAEIMVSDQDDCAPVGCSMYARCISEGEDATCQCLKGFAGDGKLCSDIDECEMGVPVCPPASSKCINTEGGYVCRCSEGYQGDGIHCLDIDECQLGEHSCGENASCTNTEGGYTCMCAGRLSEPGLICPDSTPPPHLREDDHHYSVRNSDSECPLSHDGYCLHDGVCMYIEALDKYACNCVVGYIGERCQYRDLKWWELRHAGHGQQQKVIVVAVCVVVLVMLLLLSLWGAHYYRTQKLLSKNPKNPYEESSRDVRSRRPADTEDGMSSCPQPWFVVIKEHQDLKNGGQPVAGEDGQAADGSMQPTSWRQEPQLCGMGTEQGCWIPVSSDKGSCPQVMERSFHMPSYGTQTLEGGVEKPHSLLSANPLWQQRALDPPHQMELTQ
modifications: Pro-epidermal growth factor fluorescein label
For B1, the IC50 (100 nM conjugate, 1 h at 4° C., value listed under the conjugate displaced, read-out: concentration of free EGF giving 50% inhibition of binding of the labeled conjugate) came to 60 nM. Further, the “apparent KA” value (double reciprocal binding plots of normalized fluorescence) turned out to be 15 nM.
